Among the data in US11306156 are H2L2:H2L1 normalized median ratio, H1L1:H1L2 normalized median ratio and H1L1:H1L2 normalized median scalar value ln(r1/f1) values, retold here.

In test [1] the target is D3H44 Fab heavy chain S186R, ABD2-His6 tagged. The test is described as follows: LCCA, SPR of light chain tags; L1:L2 DNA 1:3 normalized to 1:1; competing light chain m16.
In test [2] the target is D3H44 Fab heavy chain Q179K, ABD2-His6 tagged. The description is as above.
Test [3] concerns the target D3H44 Fab heavy chain Q179R, ABD2-His6 tagged. Described as above.
Test [4] has as its target D3H44 Fab heavy chain L143E_K145T_Q179E, ABD2-His6 tagged. The test is described as above.
Test [5] deals with D3H44 Fab heavy chain S186K, ABD2-His6 tagged. The test is described as above.
The target of test [6] is D3H44 Fab heavy chain S186R, ABD2-His6 tagged. The test is described as follows: LCCA, SPR of light chain tags; L1:L2 DNA 1:9 normalized to 1:1; competing light chain m16.
Test [7] addresses D3H44 Fab heavy chain Q179K, ABD2-His6 tagged. The test is described as above.
Test [8] has as its target D3H44 Fab heavy chain Q179R, ABD2-His6 tagged. The test is described as above.
Test [9] addresses D3H44 Fab heavy chain L143E_K145T_Q179E, ABD2-His6 tagged. Described as above.
Test [10] addresses D3H44 Fab heavy chain S186K, ABD2-His6 tagged. The test is described as above.
The target of test [11] is D3H44 Fab heavy chain S186R, ABD2-His6 tagged. The test is described as follows: LCCA, SPR of light chain tags; L1:L2 DNA 1:3 normalized to 1:1; competing light chain m18.
Test [12] concerns the target D3H44 Fab heavy chain L143E_K145T_Q179D, ABD2-His6 tagged. The test is described as above.
The target in test [13] is D3H44 Fab heavy chain S186K, ABD2-His6 tagged. The test is described as above.
For test [14], the target named is D3H44 Fab heavy chain S186R, ABD2-His6 tagged. The test can be described thus: LCCA, SPR of light chain tags; L1:L2 DNA 1:3 normalized to 1:1; competing light chain m23.
The target of test [15] is D3H44 Fab heavy chain L143E_K145T_Q179D, ABD2-His6 tagged. The test is described as above.
Test [16] concerns the target D3H44 Fab heavy chain L143E_K145T_Q179E, ABD2-His6 tagged. The test is described as above.
The target of test [17] is D3H44 Fab heavy chain S186K, ABD2-His6 tagged. The description is as above.
In test [18] the target is D3H44 Fab heavy chain L143E_K145T_Q179D, ABD2-His6 tagged. The test is described as follows: LCCA, SPR of light chain tags; L1:L2 DNA 1:9 normalized to 1:1; competing light chain m18.
Test [19] has as its target D3H44 Fab heavy chain S186K, ABD2-His6 tagged. The description is as above.
Test [20] has as its target D3H44 Fab heavy chain L143R, ABD2-His6 tagged. The test can be described thus: LCCA, SPR of light chain tags; L1:L2 DNA 1:3 normalized to 1:1; competing light chain m16.
Test [21] has the same target. The test can be described thus: LCCA, SPR of light chain tags; L1:L2 DNA 1:9 normalized to 1:1; competing light chain m16.
In test [22] the target is D3H44 Fab heavy chain L143E_K145T_Q179D, ABD2-His6 tagged. The test is described as follows: LCCA, SPR of light chain tags; L1:L2 DNA 1:9 normalized to 1:1; competing light chain m19.
For test [23], the target named is D3H44 Fab heavy chain S186K, ABD2-His6 tagged. The description is as above.
Test [24] concerns the target D3H44 Fab heavy chain S186R, ABD2-His6 tagged. The test is described as follows: LCCA, SPR of light chain tags; L1:L2 DNA 1:3 normalized to 1:1; competing light chain m19.
The target of test [25] is D3H44 Fab heavy chain L143E_K145T_Q179D, ABD2-His6 tagged. The test is described as above.
In test [26] the target is D3H44 Fab heavy chain S186K, ABD2-His6 tagged. The test is described as above.

Regarding “D3H44 light chain Q124E_Q160E_T178E, HA or FLAG tagged”, the H2L2:H2L1 normalized median ratio in test [1] was 94%; in test [2], 95%; in test [3], 95%; in test [5], 98%; in [6] it was 87%; in test [7], 84%. For the same substance, the values for the H2L2:H2L1 normalized median ratio in [8] and in test [10] were 86% and 90%, respectively. Further, the H1L1:H1L2 normalized median ratio in [4] turned out to be 9%; in test [9], 10%.
Turning to “D3H44 light chain Q124E_T180E, HA or FLAG tagged”, the H2L2:H2L1 normalized median ratio came to 96% in test [1]; 97% in test [11]; 98% in [13]; 97% in [14]; 97% in test [17]; 95% in [19]. For the same substance, the H1L1:H1L2 normalized median ratio in [4] amounted to 15%; in test [12] it was 15%; in [15] it was 16%; in [16] it was 16%; in test [18], 11%.
In the case of “D3H44 light chain Q124E_V133E, HA or FLAG tagged”, the H1L1:H1L2 normalized median ratio was found to be 7% in test [4] and 8% in test [9]. In addition, the H2L2:H2L1 normalized median ratio in test [20] was found to be 95%; in test [21], 89%.
Take “D3H44 light chain Q124K_T178R, HA or FLAG tagged”: the values for the H1L1:H1L2 normalized median ratio in test [22] and in test [25] were 89% and 85%, respectively. Further, the H1L1:H1L2 normalized median scalar value ln(r1/f1) is 2.05 in test [22] and 1.74 in test [25]. The H2L2:H2L1 normalized median ratio was determined as 5% in test [23], 3% in test [24] and 2% in [26].
